In US20180371086A1 (Gilead, published 2018):

Assays:
Assay in all cases: cell-based or functional assay
[1] = target: HIV-1 Env of virus MGRM-F1-013 (HIV-1)
[2] = target: HIV-1 Env of virus MGRM-Chronic-B-001 (HIV-1)
[3] = target: HIV-1 Env of virus MGRM-Acute-B-010 (HIV-1)
[4] = target: HIV-1 Env of virus MGRM-F1-006 (HIV-1)
[5] = target: HIV-1 Env of virus MGRM-C-017 (HIV-1)
[6] = target: HIV-1 Env of virus MGRM-Chronic-B-007 (HIV-1)
[7] = target: HIV-1 Env of virus MGRM-G-017 (HIV-1)
[8] = target: HIV-1 Env of virus MGRM-Chronic-B-016 (HIV-1)
[9] = target: HIV-1 Env of virus MGRM-F1-012 (HIV-1)
[10] = target: HIV-1 Env of virus MGRM-Acute-B-004 (HIV-1)
[11] = target: HIV-1 Env of virus MGRM-AG-005 (HIV-1)
[12] = target: HIV-1 Env of virus MGRM-C-024 (HIV-1)
[13] = target: HIV-1 Env of virus MGRM-C-018 (HIV-1)
[14] = target: HIV-1 Env of virus MGRM-A-012 (HIV-1)
[15] = target: HIV-1 Env of virus MGRM-Acute-B-005 (HIV-1)
[16] = target: HIV-1 Env of virus MGRM-Chronic-B-009 (HIV-1)
[17] = target: HIV-1 Env of virus MGRM-Chronic-B-004 (HIV-1)
[18] = target: HIV-1 Env of virus MGRM-A-003 (HIV-1)
[19] = target: HIV-1 Env of virus MGRM-G-019 (HIV-1)
[20] = target: HIV-1 Env of virus MGRM-C-013 (HIV-1)
[21] = target: HIV-1 Env of virus MGRM-C-026 (HIV-1)
[22] = target: HIV-1 Env of virus MGRM-C-020 (HIV-1)
[23] = target: HIV-1 Env of virus MGRM-Chronic-B-014 (HIV-1)
[24] = target: HIV-1 Env of virus MGRM-Chronic-B-019 (HIV-1)
[25] = target: HIV-1 Env of virus MGRM-AG-009 (HIV-1)
[26] = target: HIV-1 Env of virus MGRM-Chronic-B-002 (HIV-1)
[27] = target: HIV-1 Env of virus MGRM-C-008 (HIV-1)
[28] = target: HIV-1 Env of virus MGRM-C-022 (HIV-1)
[29] = target: HIV-1 Env of virus MGRM-AG-008 (HIV-1)
[30] = target: HIV-1 Env of virus MGRM-F1-010 (HIV-1)
[31] = target: HIV-1 Env of virus MGRM-C-028 (HIV-1)

B1: PGT121.60 hIgG1/hLambda (antibody)
heavy: QMQLQESGPGLVKPSETLSLTCSVSGASISDSYWSWIRRSPGKGLEWIGYVHKSGDTNYNPSLKSRVHLSLDTSKNQVSLSLTGVTAADSGKYYCARTLHGRRIYGIVAFNEWFTYFYMDVWGTGTQVTVSSASTKGPSVFPLAPSSKSTSGGTAALGCLVKDYFPEPVTVSWNSGALTSGVHTFPAVLQSSGLYSLSSVVTVPSSSLGTQTYICNVNHKPSNTKVDKKVEPKSCDKTHTCPPCPAPELLAGPDVFLFPPKPKDTLMISRTPEVTCVVVDVSHEDPEVKFNWYVDGVEVHNAKTKPREEQYNSTYRVVSVLTVLHQDWLNGKEYKCKVSNKALPLPEEKTISKAKGQPREPQVYTLPPSREEMTKNQVSLTCLVKGFYPSDIAVEWESNGQPENNYKTTPPVLDSDGSFFLYSKLTVDKSRWQQGNVFSCSVLHEALHSHYTQKSLSLSPGK
light: not shown
Which “PGT121.60 IC50” value [1] does the source give for B1 here?
The value was 0.0871 µg/mL.

What about the “PGT121.60 IC50” value [2] of the same binder?
The value was 0.0985 µg/mL.

What about the “PGT121.60 IC50” value [3] of the same binder?
Its value is 0.0328 µg/mL.

And the “PGT121.60 IC50” value [4]?
Its value is 2.33 µg/mL.

And the “PGT121.60 IC50” value [5]?
The value was 0.0058 µg/mL.

And the “PGT121.60 IC50” value [6]?
The value was 2.55 µg/mL.

And the “PGT121.60 IC50” value [7]?
Its value is 0.0255 µg/mL.

What about the “PGT121.60 IC50” value [8] of the same binder?
Its value is 0.0283 µg/mL.

And the “PGT121.60 IC50” value [9]?
Its value is 1.19 µg/mL.

What about the “PGT121.60 IC50” value [10] of the same binder?
The value was 0.0497 µg/mL.

And the “PGT121.60 IC50” value [11]?
The value was 0.203 µg/mL.

And the “PGT121.60 IC50” value [12]?
Its value is 0.0826 µg/mL.

What about the “PGT121.60 IC50” value [13] of the same binder?
Its value is 10.3 µg/mL.

What about the “PGT121.60 IC50” value [14] of the same binder?
The value was 0.0397 µg/mL.

And the “PGT121.60 IC50” value [15]?
Its value is 0.0014 µg/mL.

What about the “PGT121.60 IC50” value [16] of the same binder?
The value was 0.0112 µg/mL.

And the “PGT121.60 IC50” value [17]?
The value was 0.0013 µg/mL.

And the “PGT121.60 IC50” value [18]?
The value was 0.0865 µg/mL.

And the “PGT121.60 IC50” value [19]?
Its value is 0.0091 µg/mL.

And the “PGT121.60 IC50” value [20]?
Its value is 12.3 µg/mL.

What about the “PGT121.60 IC50” value [21] of the same binder?
The value was 0.0004 µg/mL.

What about the “PGT121.60 IC50” value [22] of the same binder?
Its value is 14.9 µg/mL.

And the “PGT121.60 IC50” value [23]?
Its value is 0.133 µg/mL.

And the “PGT121.60 IC50” value [24]?
Its value is 0.199 µg/mL.

And the “PGT121.60 IC50” value [25]?
Its value is 0.0868 µg/mL.

What about the “PGT121.60 IC50” value [26] of the same binder?
Its value is 0.0649 µg/mL.

And the “PGT121.60 IC50” value [27]?
Its value is 0.0044 µg/mL.

What about the “PGT121.60 IC50” value [28] of the same binder?
Its value is 0.0038 µg/mL.

What about the “PGT121.60 IC50” value [29] of the same binder?
The value was 1.71 µg/mL.

And the “PGT121.60 IC50” value [30]?
The value was 0.0125 µg/mL.

What about the “PGT121.60 IC50” value [31] of the same binder?
Its value is 0.744 µg/mL.
